The values that follow come from publication PMC8232969 (Cell, 2021).

This experiment deals with SARS-CoV-2 Spike-2P (stabilized S ectodomain trimer) (SARS-CoV-2, UniProt P0DTC2). Briefly: cryo-EM structure.

In general, stoichiometry N refers to the number of molecules, sites or subunits per partner or assembly.

B1: DH1047 Fab (Fab, V domains shown)
VH: QVQLVQSGAEVKKPGASVQVSCQASANTFTNHYIHWVRQAPGQGLEWMGIIYPTGGNTIYAQGFQGRVTMTRDTSLNTIYLELSSLRSEDTAVYYCARDVRVDDSWSGYDLLSGGTYFDYWGQGTLVTVSS
VL: not shown
With B1, the “stoichiometry N” value was 3 Fabs per S-2P trimer.

B2: DH1041 Fab (Fab, V domains shown)
VH: EVQLVESGGGLVQPGGSLRLSCAASGVTFSSYWMSWVRQAPGKGLEWVANIRQDGSEKYSVDSVKGRFTISRDNAKNSLYLQMNSLRAEDTAVYYCARARRADNSGYYGFHFDCWGQGTLVTVSS
VL: QSVLTQPPSVSGAPGQRVTISCTGSSSNIGAGYDVHWYQQLPGTAPKLLIYGNNNRPSGVPDRFSDSKSGTSASLAITRLQAEDEADYYCQSYDSSLSGWVFGGGTKLTVL
Turning to B2, the “stoichiometry N” value came to 3 Fabs per S-2P trimer.
